# Experimental data reported in patent US20230250134A1 (University of Washington, published 2023).
# Changes are numbered by the printed parent chain. Where no end group is shown, it is not given here.
# B1: LCB1-36GS-LCB1 (designed binder)
# chain: DKEWILQKIYEIMRLLDELGHAEASMRVSDLIYEFMKKGDERLLEEAERLLEEVERGGGSGGGSGGSGGSGGGSGGGSGSGGSGGGGSGGGSDKEWILQKIYEIMRLLDELGHAEASMRVSDLIYEFMKKGDERLLEEAERLLEEVER
# B2: AHB2-1 (designed binder)
# chain: ELEERVMHLLDQVSELAHELLHKLTGEELQRATHFDKWANEAILELIKSDDEREIREIEEEARRILEHLEELARK
# B3: LCB1_v1.1-GSLCB1_v1.1 (1GS1) (designed binder)
# chain: DKENILQKIYEIMKTLDQLGHAEASMQVSDLIYEFMKQGDERLLEEAERLLEEVERGGGGSGGGGSGGGGSGGGGSGGGGSGGGGSGGGGSGGGGSGGGGSGGGGSGGGGSGGGGSGGGGSGGGGSGGGGSDKENILQKIYEIMKTLDQLGHAEASMQVSDLIYEFMKQGDERLLEEAERLLEEVER
# B4: LCB3_v1.2 (designed binder)
# chain: NDDELHMQMTDLVYEALHFAKDEEIQKHVFQLFEKATKAYKNKDRQKLEKVVEELKELLERLLS
# notes: also called LCB3-3
# B5: LCB3_v1.5 (designed binder)
# chain: B4 chain with F19K, I25M, H28R, K35Q, T37D, N42T
# B6: LCB3-4 (designed binder)
# chain: B4 chain with K35N
# B7: LCB3_v1.4 (designed binder)
# chain: B4 chain with F19K, I25F, Y40R
# B8: LCB3_v1.3 (designed binder)
# chain: B4 chain with I25F
# B9: LCB3_v1.1 (designed binder)
# chain: B4 chain with I25F, K43N
# B10: LCB1_v1.1_Cys (designed binder)
# chain: DKENILQKIYEIMKTLDQLGHAEASMQVSDLIYEFMKQGDERLLEEAERLLEEVERC
# B11: LCB1_v1.1-GS-LCB3_v1.2 (1GS3) (designed binder)
# chain: DKENILQKIYEIMKTLDQLGHAEASMQVSDLIYEFMKQGDERLLEEAERLLEEVERGGGGSGGGGSGGGGSGGGGSGGGGSGGGGSGGGGSGGGGSGGGGSGGGGSGGGGSGGGGSGGGGSGGGGSGGGGSNDDELHMQMTDLVYEALHFAKDEEIQKHVFQLFEKATKAYKNKDRQKLEKVVEELKELLERLLS
# B12: LCB3_v1.2-PRO-LCB3_v1.2 (3PRO3) (designed binder)
# chain: NDDELHMQMTDLVYEALHFAKDEEIQKHVFQLFEKATKAYKNKDRQKLEKVVEELKELLERLLSAGSGGSGGSGGSPVPSTPPTPSPSTPPTPSPSPVPSTPPTPSPSTPPTPSPSPVPSTPPTPSPSTPPTPSPSASGNDDELHMQMTDLVYEALHFAKDEEIQKHVFQLFEKATKAYKNKDRQKLEKVVEELKELLERLLS
# B13: AHB2-2 (designed binder)
# chain: ELEEQVMHVLDQVSELAHELLHKLTGEELERAAYFNWWATEMMLELIKSDDEREIREIEEEARRILEHLEELARK
# B14: LCB4-1 (designed binder)
# chain: QREKRLKQLEMLLEYAIERNDPYLMFDVAVEMLRLAEENNDERIIERAKRILEEYE
# B15: LCB4-2 (designed binder)
# chain: DREERLKYLEMLLELAVERNDPYLIFDVAIELLRLAEENNDERIYERAKRILEEVE
# B16: LCB7-1 (designed binder)
# chain: DDDIRYLIYMAKLRLEQGNPEEAEKVLEMARFLAERLGMEELLKEVRELLRKIEELR
# B17: LCB7-2 (designed binder)
# chain: B16 chain with I4V, R14L, M29S, L33A, R36L, M39N
# B18: LCB3-2 (designed binder)
# chain: NDDELLMLVTDLVAEALLFAKDEEIKKRVFTLFELADKAYKNNDRDTLSKVVSELKELLERLQ
# B19: Mucin_LCB1_v1.1_Cys (designed binder)
# chain: AKAKAKAKAKAKAKAKAKAKGGDKENILQKIYEIMKTLDQLGHAEASMQVSDLIYEFMKQGDERLLEEAERLLEEVERC
# B20: LCB1_v1.1-PRO-LCB1_v1.1 (1PRO1) (designed binder)
# chain: DKENILQKIYEIMKTLDQLGHAEASMQVSDLIYEFMKQGDERLLEEAERLLEEVERAGSGGSGGSGGSPVPSTPPTPSPSTPPTPSPSPVPSTPPTPSPSTPPTPSPSPVPSTPPTPSPSTPPTPSPSASGDKENILQKIYEIMKTLDQLGHAEASMQVSDLIYEFMKQGDERLLEEAERLLEEVER
# B21: LCB8-1 (designed binder)
# chain: PIIELLREAKEKNDEFAISDALYLVNELLQRTGDPRLEEVLYLIWRALKEKDPRLLDRAIELFER
# B22: LCB8-2 (designed binder)
# chain: B21 chain with I2V, I3T, E15P, F16M, Y23F, N26F, L29A, Y42F
# B23: AHB1-2 (designed binder)
# chain: DEDLEELERLYRKAEEVAKEAEEASRRGDKERAKELLERALHLFDQVFELAQELQEKLTDEKRQKATHLDKAVHEAADELYQRVR
# B24: LCB3_v1.2-GS3-LCB3_v1.2 (3GS3) (designed binder)
# chain: NDDELHMQMTDLVYEALHFAKDEEIQKHVFQLFEKATKAYKNKDRQKLEKVVEELKELLERLLSGGGGSGGGGSGGGGSGGGGSGGGGSGGGGSGGGGSGGGGSGGGGSGGGGSGGGGSGGGGSGGGGSGGGGSGGGGSNDDELHMQMTDLVYEALHFAKDEEIQKHVFQLFEKATKAYKNKDRQKLEKVVEELKELLERLLS
# B25: LCB5-1 (designed binder)
# chain: SLEELKEQVKELKKELSPEMRRLIEEALRFLEEGNPAMAMMVLSDLVYQLGDPRVIDLYMLVTKT
# B26: AHB1-1 (designed binder)
# chain: DEDLEELERLYRKAEEVAKEAKDASRRGDDERAKEQMERAMRLFDQVFELAQELQEKQTDGNRQKATHLDKAVKEAADELYQRVR
# B27: LCB2-1 (designed binder)
# chain: SDDEDSVRYLLYMAELRYEQGNPEKAKKILEMAEFIAKRNNNEELERLVREVKKRL
# B28: LCB2-2 (designed binder)
# chain: B27 chain with S6A, R17L, E19K, K25E, I29L, M32L
# B29: LCB5-2 (designed binder)
# chain: SLEEVKEILKELKKELSPEDRRLIEEALRLLEEGNPAMASMVLSDLVFLLGDPRVIELLMLVTKT
# B30: LCB1-4 (designed binder)
# chain: DKENILQKIYEIMKTLDQLGHAEASMQVSDLIYEFMKQGDERLLEEAERLLEEVER
# notes: also called LCB1_v1.1
# B31: LCB1_v1.5 (LCB1_v1.3 with N-link Glycosylation) (designed binder)
# chain: B30 chain with D17E, Q27N
# modifications: also: N-linked glycosylation, site not given here
# B32: LCB1_v1.4 (designed binder)
# chain: B30 chain with D17E, R42N, R49Q, E52Q
# B33: LCB1_v1.2 (designed binder)
# chain: B30 chain with Q27Y
# B34: LCB1-5 (designed binder)
# chain: B30 chain with Q27N
# B35: Mucin_LCB1_v1.3 (designed binder)
# chain: AKAKAKAKAKAKAKAKAKAKGGDKENILQKIYEIMKTLEQLGHAEASMQVSDLIYEFMKQGDERLLEEAERLLEEVER
# B36: LCB3_v1.2-GS-LCB1_v1.1 (3GS1) (designed binder)
# chain: NDDELHMQMTDLVYEALHFAKDEEIQKHVFQLFEKATKAYKNKDRQKLEKVVEELKELLERLLSGGGGSGGGGSGGGGSGGGGSGGGGSGGGGSGGGGSGGGGSGGGGSGGGGSGGGGSGGGGSGGGGSGGGGSGGGGSDKENILQKIYEIMKTLDQLGHAEASMQVSDLIYEFMKQGDERLLEEAERLLEEVER
# B37: 36175 (5_LCB1_linker14) (designed binder)
# chain: DKEWILQKIYEIMRLLDELGHAEASMRVSDLIYEFMKKGDERLLEEAERLLEEVERGGSGSSGGSGSGSGDKEWILQKIYEIMRLLDELGHAEASMRVSDLIYEFMKKGDERLLEEAERLLEEVERGGSGSSGGSGSGSGDKEWILQKIYEIMRLLDELGHAEASMRVSDLIYEFMKKGDERLLEEAERLLEEVERGGSGSSGGSGSGSGDKEWILQKIYEIMRLLDELGHAEASMRVSDLIYEFMKKGDERLLEEAERLLEEVERGGSGSSGGSGSGSGDKEWILQKIYEIMRLLDELGHAEASMRVSDLIYEFMKKGDERLLEEAERLLEEVER
# B38: LCB1-24GS-LCB1 (designed binder)
# chain: DKEWILQKIYEIMRLLDELGHAEASMRVSDLIYEFMKKGDERLLEEAERLLEEVERGGGSGGGSSGGSGGSSGGGSGGGSDKEWILQKIYEIMRLLDELGHAEASMRVSDLIYEFMKKGDERLLEEAERLLEEVER
# Biological target: SARS-COV-2 Spike glycoprotein receptor binding domain (RBD) (SARS-CoV-2, UniProt P0DTC2 319-541)
# Assay: not given
row,Binder,Kd [nM]
1,B1,0.2
2,B2,0.2
3,B3,0.2
4,B4,0.2
5,B5,0.2
6,B6,0.2
7,B7,0.2
8,B8,0.2
9,B9,0.2
10,B10,0.2
11,B11,0.2
12,B12,0.2
13,B13,0.2
14,B14,0.2
15,B15,0.2
16,B16,0.2
17,B17,0.2
18,B18,0.2
19,B19,0.2

row,Binder,Kd [nM]
1,B20,0.2
2,B21,0.2
3,B22,0.2
4,B23,0.2
5,B24,0.2
6,B25,0.2
7,B26,0.2
8,B27,0.2
9,B28,0.2
10,B29,0.2
11,B30,0.2
12,B31,0.2
13,B32,0.2
14,B33,0.2
15,B34,0.2
16,B35,0.2
17,B36,0.2
18,B37,0.2
19,B38,0.2

# Biological target: SARS-COV-2 Spike glycoprotein (SARS-CoV-2, UniProt P0DTC2 14-1208)
# Assay: estimated Kd for Spike (avidity), Table 10
row,Binder,Kd [nM]
1,B3,0.1
2,B10,0.1
3,B11,0.1
4,B12,0.1
5,B13,0.1
6,B14,0.1
7,B15,0.1
8,B16,0.1
9,B17,0.1
10,B19,0.1
11,B20,0.1
12,B24,0.1
13,B27,0.1
14,B28,0.1
15,B30,0.1
16,B31,0.1
17,B32,0.1
18,B33,0.1
19,B34,0.1
20,B36,0.1
21,B37,0.1
